Measurements from article PMC4937327.
Like-named read-outs stand apart in the source and are kept apart here.

Experiments:
[1] = target: PtAUREO1c (aureochrome 1c from Phaeodactylum tricornutum), full length (Phaeodactylum tricornutum); experiment: MST
[2] = target: PtAUREO1a bZIP-A′α-LOV-Jα functional module (residues D145-D378) (Phaeodactylum tricornutum); experiment: SEC
[3] = target: PtAUREO1a bZIP-A′α-LOV-Jα functional module (residues D145-D378) (Phaeodactylum tricornutum); experiment: SEC; remark: listed apart in the source
[4] = target: PtAUREO1a bZIP-A′α-LOV-Jα functional module (residues D145-D378) (Phaeodactylum tricornutum); experiment: SAXS
[5] = target: PtAUREO1a bZIP-A′α-LOV-Jα functional module (residues D145-D378) (Phaeodactylum tricornutum); experiment: MST
[6] = target: PtAUREO1a bZIP-A′α-LOV-Jα functional module (residues D145-D378) (Phaeodactylum tricornutum); experiment: MST; remark: listed apart in the source

Substance | Kd [1] | stoichiometry N [2] | stoichiometry N [3] | stoichiometry N [4] | Kd [5] | Kd [6]
PtAUREO1a (aureochrome 1a from Phaeodactylum tricornutum), full length (natural protein) | 240 nM | – | – | – | – | –
PtAUREO1a bZIP-A′α-LOV-Jα functional module (residues D145-D378) (domain or fragment) | 450 nM | 2 | 2 | 2 | 240 to 280 nM | –
dsDNA/bZIP-A′α-LOV-Jα complex (PtAUREO1a bZIP-A′α-LOV-Jα dimer bound to dsDNA) | – | – | – | – | 800 nM | 2600 nM
